The results in this text go back to US20090155256A1 (Pfizer, published 2009).

B1: Humanized 3D6 2m (FcγR), human IgG1 L234A/G237A (EU numbering) (antibody)
heavy: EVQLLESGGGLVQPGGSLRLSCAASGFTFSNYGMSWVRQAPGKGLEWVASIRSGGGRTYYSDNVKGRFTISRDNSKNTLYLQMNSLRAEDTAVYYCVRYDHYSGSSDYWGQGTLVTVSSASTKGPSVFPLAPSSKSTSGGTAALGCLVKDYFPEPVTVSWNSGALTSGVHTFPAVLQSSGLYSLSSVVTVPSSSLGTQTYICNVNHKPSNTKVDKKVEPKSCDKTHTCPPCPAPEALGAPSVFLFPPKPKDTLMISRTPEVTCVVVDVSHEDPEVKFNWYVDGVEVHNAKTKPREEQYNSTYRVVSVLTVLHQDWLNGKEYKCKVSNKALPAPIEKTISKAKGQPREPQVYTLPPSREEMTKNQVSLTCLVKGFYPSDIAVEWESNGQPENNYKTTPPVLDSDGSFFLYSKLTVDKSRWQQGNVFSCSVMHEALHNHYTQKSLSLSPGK
light: DVVMTQSPLSLPVTPGEPASISCKSSQSLLDSDGKTYLNWLLQKPGQSPQRLIYLVSKLDSGVPDRFSGSGSGTDFTLKISRVEAEDVGVYYCWQGTHFPRTFGQGTKVEIKRTVAAPSVFIFPPSDEQLKSGTASVVCLLNNFYPREAKVQWKVDNALQSGNSQESVTEQDSKDSTYSLSSTLTLSKADYEKHKVYACEVTHQGLSSPVTKSFNRGEC
notes: also called Hu 3D6 2 m; Hu 3D6 2 m IgG1
B2: Humanized 3D6 1m (hinge region), human IgG4 S241P (Kabat numbering) (antibody)
heavy: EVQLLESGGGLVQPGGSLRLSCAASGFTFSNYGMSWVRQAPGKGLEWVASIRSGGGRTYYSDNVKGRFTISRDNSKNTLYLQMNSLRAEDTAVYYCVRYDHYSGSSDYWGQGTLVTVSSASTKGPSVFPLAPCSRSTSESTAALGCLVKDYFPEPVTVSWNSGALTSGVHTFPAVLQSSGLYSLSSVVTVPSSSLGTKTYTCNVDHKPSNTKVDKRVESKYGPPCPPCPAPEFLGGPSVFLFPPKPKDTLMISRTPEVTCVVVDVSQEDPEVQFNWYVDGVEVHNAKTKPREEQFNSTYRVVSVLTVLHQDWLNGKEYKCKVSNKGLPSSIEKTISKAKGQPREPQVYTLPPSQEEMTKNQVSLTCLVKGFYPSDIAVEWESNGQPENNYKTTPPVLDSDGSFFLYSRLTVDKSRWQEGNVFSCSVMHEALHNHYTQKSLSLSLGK
light: B1 light
notes: also called Hu 3D6 1m IgG4; IgG4 isotype
B3: Humanized 3D6 3m (FcγR) AAB-003, human IgG1 L234A/L235A/G237A (EU numbering) (antibody)
heavy: EVQLLESGGGLVQPGGSLRLSCAASGFTFSNYGMSWVRQAPGKGLEWVASIRSGGGRTYYSDNVKGRFTISRDNSKNTLYLQMNSLRAEDTAVYYCVRYDHYSGSSDYWGQGTLVTVSSASTKGPSVFPLAPSSKSTSGGTAALGCLVKDYFPEPVTVSWNSGALTSGVHTFPAVLQSSGLYSLSSVVTVPSSSLGTQTYICNVNHKPSNTKVDKKVEPKSCDKTHTCPPCPAPEAAGAPSVFLFPPKPKDTLMISRTPEVTCVVVDVSHEDPEVKFNWYVDGVEVHNAKTKPREEQYNSTYRVVSVLTVLHQDWLNGKEYKCKVSNKALPAPIEKTISKAKGQPREPQVYTLPPSREEMTKNQVSLTCLVKGFYPSDIAVEWESNGQPENNYKTTPPVLDSDGSFFLYSKLTVDKSRWQQGNVFSCSVMHEALHNHYTQKSLSLSPGK
light: B1 light
notes: also called Hu 3D6 3 m; Hu 3D6 3 m IgG1
B4: Bapineuzumab (humanized 3D6, human IgG1, no Fc mutations) (antibody)
heavy: not shown
light: B1 light
notes: also called AAB-001; Bapineuzumab Control

Sequence of Purified human C1q (191391, MP Biomedicals) (P02745 23-245 limits assumed, chain 1 of 3): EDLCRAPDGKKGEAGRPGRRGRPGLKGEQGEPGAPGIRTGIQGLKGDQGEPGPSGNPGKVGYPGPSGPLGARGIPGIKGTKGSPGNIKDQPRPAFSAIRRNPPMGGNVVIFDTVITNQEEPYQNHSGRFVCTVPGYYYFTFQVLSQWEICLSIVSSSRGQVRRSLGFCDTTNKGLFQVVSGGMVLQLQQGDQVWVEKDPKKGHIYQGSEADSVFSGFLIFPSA
Sequence of Purified human C1q (191391, MP Biomedicals) (P02746 28-253 limits assumed, chain 2 of 3): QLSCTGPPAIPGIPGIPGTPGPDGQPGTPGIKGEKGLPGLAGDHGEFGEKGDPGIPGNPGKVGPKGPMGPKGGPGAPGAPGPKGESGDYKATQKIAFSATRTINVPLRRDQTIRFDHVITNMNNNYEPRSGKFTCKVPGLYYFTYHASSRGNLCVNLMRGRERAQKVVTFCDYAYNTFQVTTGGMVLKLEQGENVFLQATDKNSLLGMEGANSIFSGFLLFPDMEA
Sequence of Purified human C1q (191391, MP Biomedicals) (P02747 29-245 limits assumed, chain 3 of 3): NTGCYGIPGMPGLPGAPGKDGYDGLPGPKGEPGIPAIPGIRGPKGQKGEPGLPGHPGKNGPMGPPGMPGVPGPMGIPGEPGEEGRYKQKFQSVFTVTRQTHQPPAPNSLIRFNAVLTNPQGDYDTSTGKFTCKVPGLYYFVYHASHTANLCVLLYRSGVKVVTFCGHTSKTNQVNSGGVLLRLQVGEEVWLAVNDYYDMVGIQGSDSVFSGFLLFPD
T1 sequence (P12314 16-288 limits assumed): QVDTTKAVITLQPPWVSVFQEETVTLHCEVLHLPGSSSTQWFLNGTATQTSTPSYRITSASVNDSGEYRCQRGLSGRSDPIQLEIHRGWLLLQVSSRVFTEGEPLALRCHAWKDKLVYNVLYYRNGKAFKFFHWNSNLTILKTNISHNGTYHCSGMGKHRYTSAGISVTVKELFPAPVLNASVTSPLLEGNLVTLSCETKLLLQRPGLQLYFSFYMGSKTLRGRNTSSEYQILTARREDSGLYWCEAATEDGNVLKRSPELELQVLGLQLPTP

One assay addresses Purified human C1q (191391, MP Biomedicals) (human, UniProt P02745 23-245; P02746 28-253; P02747 29-245). In words: ELISA: Aβ-coated plate, antibody, purified human C1q, FITC anti-C1q. Background: ELISA stands for enzyme-linked immunosorbent assay.
For B1, the binding result was “no binding”.

As for B2, the binding result is recorded as “no binding”.

For the molecule B3, the binding result was “no binding”.

Another assay concerns the target T1, His-tagged domains of human FcγRI (R&D Systems, Cat # 1257-Fc) (human, UniProt P12314 16-288).
T1 construct: Bought construct; not shown: His tag
As to the kind of experiment: SPR (Biacore 3000), His-tagged receptor captured by penta-His antibody on CM5 chip, antibody injected; RU relative to control. On the technique in general: In SPR one partner is held on a chip, and binding of the other changes the refractive index at the surface.
As for B1, the “Relative Binding Capability (%)” value was determined as 0%.

On to B4, for which the “Relative Binding Capability (%)” value came to 100%.

As for B3, the “Relative Binding Capability (%)” value turned out to be 0%.

For another assay, the target named is T2, His-tagged domains of human FcγRIII (R&D Systems, Cat # 1597-Fc) (human, UniProt O75015 17-200, limits assumed).
T2 construct: not shown: His tag
T2 sequence (O75015 17-200 limits assumed): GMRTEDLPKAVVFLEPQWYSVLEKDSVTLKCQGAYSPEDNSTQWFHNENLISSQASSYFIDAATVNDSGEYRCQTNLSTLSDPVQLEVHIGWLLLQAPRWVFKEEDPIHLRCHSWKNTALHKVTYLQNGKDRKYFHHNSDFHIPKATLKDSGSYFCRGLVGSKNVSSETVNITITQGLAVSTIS
The assay is described as above.
As to B1, the “Relative Binding Capability (%)” value amounted to 0%.

For the molecule B2, the “Relative Binding Capability (%)” value amounted to 0%.

Consider B4, for which the “Relative Binding Capability (%)” value worked out at 100%.

In the case of B3, the “Relative Binding Capability (%)” value is 0%.

The target in the next assay is T1, His-tagged domains of human FcγRI (R&D …). In words: SPR (Biacore 3000), His-tagged receptor captured by penta-His antibody.
B1: the binding result is given as “no binding”.

For the molecule B2, the binding result is given as “binds”.

Turning to B3, the binding result is “no binding”.

Another assay deals with T2, His-tagged domains of human FcγRIII …. Described as above.
For B1, the binding result is “no binding”.

With B2, the binding result is “no binding”.

Consider B3, for which the binding result is “no binding”.
